Results from the Immune Epitope Database (IEDB).

Assays:
Test in all cases: IEDB peptide-MHC binding, purified MHC/competitive/radioactivity; filed as Kd, often an IC50 or EC50 that approximates it; ≥ and ≤ were set here for values at or beyond the usual limits of such assays
Details in all cases: source organism: Plasmodium falciparum 3D7
[1] = target: HLA-A*33:01
[2] = target: HLA-A*31:01
[3] = target: HLA-A*68:01
[4] = target: HLA-A*03:01
[5] = target: HLA-A*11:01
[6] = target: HLA-A*30:02
[7] = target: HLA-A*29:02
[8] = target: HLA-A*23:01
[9] = target: HLA-A*24:02
[10] = target: HLA-A*01:01
[11] = target: HLA-A*26:01

Sequence	Kd [1]	Kd [2]	Kd [3]	Kd [4]	Kd [5]	Kd [6]	Kd [7]	Kd [8]	Kd [9]	Kd [10]	Kd [11]
PVVCSMEYK	≥ 10000 nM	≥ 10000 nM	414 nM	1940 nM	80 nM	–	–	–	–	–	–
ALERLLSLK	≥ 10000 nM	3430 nM	≥ 10000 nM	233 nM	369 nM	–	–	–	–	–	–
KSMLKELIK	≥ 10000 nM	450 nM	≥ 10000 nM	189 nM	151 nM	–	–	–	–	–	–
AFLESQSMNK	≥ 10000 nM	9890 nM	≥ 10000 nM	3060 nM	1090 nM	–	–	–	–	–	–
MFVPKYFEL	–	–	–	–	–	8560 nM	2560 nM	11 nM	266 nM	–	–
MQSSFFMNR	75 nM	29 nM	3.8 nM	–	1.1 nM	–	–	–	–	–	–
HLNIPIGFK	–	183 nM	2.8 nM	2.3 nM	1.3 nM	–	–	–	–	–	–
LTNHLINTPK	373 nM	62 nM	10 nM	11 nM	5.9 nM	–	–	–	–	–	–
PVLTSLFNK	≥ 10000 nM	5110 nM	≥ 10000 nM	1950 nM	25 nM	–	–	–	–	–	–
TYGIIVPVL	–	–	–	–	–	1520 nM	≥ 10000 nM	41 nM	248 nM	–	–
NHEQKLSEY	–	–	–	–	–	≥ 10000 nM	≥ 10000 nM	–	–	≥ 10000 nM	≥ 10000 nM
QNADKNFLY	–	–	–	–	–	663 nM	24 nM	–	–	3810 nM	166 nM
TFLESSFDIK	≥ 10000 nM	≥ 10000 nM	≥ 10000 nM	≥ 10000 nM	2510 nM	–	–	–	–	–	–
NFINFIKVL	–	–	–	–	–	≥ 10000 nM	≥ 10000 nM	1040 nM	≥ 10000 nM	–	–
KYEALIKLL	–	–	–	–	–	≥ 10000 nM	≥ 10000 nM	484 nM	2860 nM	–	–
LNEQLIYTY	–	–	–	–	–	4130 nM	2400 nM	–	–	≥ 10000 nM	6210 nM
FQAAESNERY	–	–	–	–	–	372 nM	1780 nM	–	–	8960 nM	3510 nM
RYQDPQNYEL	–	–	–	–	–	84 nM	≥ 10000 nM	124 nM	–	–	–
ILCIEGEQK	≥ 10000 nM	7530 nM	526 nM	1400 nM	641 nM	–	–	–	–	–	–
YQNFQNADK	≥ 10000 nM	≥ 10000 nM	≥ 10000 nM	2710 nM	177 nM	–	–	–	–	–	–
FISFYLINK	1460 nM	2190 nM	18 nM	19 nM	9 nM	–	–	–	–	–	–
SSPLFNNFYK	1730 nM	1610 nM	6.3 nM	100 nM	0.74 nM	–	–	–	–	–	–
IFISFYLINK	394 nM	462 nM	363 nM	1990 nM	1060 nM	–	–	–	–	–	–

Sequence	Kd [1]	Kd [2]	Kd [3]	Kd [4]	Kd [5]	Kd [6]	Kd [7]	Kd [8]	Kd [9]	Kd [10]	Kd [11]
NVDQQNDMY	–	–	–	–	–	≥ 10000 nM	≥ 10000 nM	–	–	47 nM	≥ 10000 nM
KFNILSSPL	–	–	–	–	–	1280 nM	≥ 10000 nM	1760 nM	1730 nM	–	–
DFFLKSKFNI	–	–	–	–	–	2610 nM	≥ 10000 nM	304 nM	1650 nM	–	–
ELEASISGKY	–	–	–	–	–	463 nM	≥ 10000 nM	–	–	142 nM	23 nM
SFFMNRFYI	–	–	–	–	–	1020 nM	200 nM	11 nM	172 nM	–	–
IYYFDGNSW	–	–	–	–	–	3020 nM	3100 nM	6.1 nM	–	–	–
QQNQESKIMK	≥ 10000 nM	≥ 10000 nM	≥ 10000 nM	3470 nM	77 nM	–	–	–	–	–	–
QEEQKKYIY	–	–	–	–	–	≥ 10000 nM	≥ 10000 nM	–	–	≥ 10000 nM	≥ 10000 nM
LFDKDTFFK	1190 nM	5710 nM	101 nM	931 nM	167 nM	–	–	–	–	–	–
IIALLIIPPK	8430 nM	≥ 10000 nM	82 nM	30 nM	5.3 nM	–	–	–	–	–	–
SSPLFNNFY	–	–	–	–	–	41 nM	–	–	–	117 nM	17 nM
YLFNQHIKK	7970 nM	4920 nM	14 nM	14 nM	7.8 nM	–	–	–	–	–	–
IFLRFIPDK	1310 nM	1640 nM	≥ 10000 nM	2440 nM	1280 nM	–	–	–	–	–	–
LYYLFNQHI	–	–	–	–	–	≥ 10000 nM	≥ 10000 nM	1.4 nM	33 nM	–	–
TYKKKNNHI	–	–	–	–	–	–	≥ 10000 nM	81 nM	30 nM	–	–
VVCSMEYKK	≥ 10000 nM	891 nM	167 nM	443 nM	54 nM	–	–	–	–	–	–
RMTSLKNEL	–	–	–	–	–	14 nM	≥ 10000 nM	–	≥ 10000 nM	–	–
IALLIIPPK	1400 nM	2930 nM	1960 nM	1240 nM	108 nM	–	–	–	–	–	–
YLINKHWQR	7.7 nM	4.4 nM	3.7 nM	1030 nM	676 nM	–	–	–	–	–	–
TTRYKYLNK	652 nM	416 nM	2560 nM	117 nM	848 nM	–	–	–	–	–	–
AVSEIQNNK	≥ 10000 nM	1430 nM	14 nM	25 nM	11 nM	–	–	–	–	–	–
QAAESNERY	–	–	–	–	–	3010 nM	≥ 10000 nM	–	–	353 nM	142 nM
NIFLRFIPDK	1090 nM	≥ 10000 nM	1530 nM	≥ 10000 nM	2120 nM	–	–	–	–	–	–

Sequence	Kd [1]	Kd [2]	Kd [3]	Kd [4]	Kd [5]	Kd [6]	Kd [7]	Kd [8]	Kd [9]	Kd [10]	Kd [11]
SSFFMNRFY	–	–	–	–	–	7.5 nM	36 nM	–	–	239 nM	166 nM
SYKSSKRDKF	–	–	–	–	–	88 nM	≥ 10000 nM	797 nM	256 nM	–	–
YYNNFNNNY	–	–	–	–	–	58 nM	–	126 nM	–	–	–
GTMYILLKK	8450 nM	29 nM	3.1 nM	2.2 nM	1.2 nM	–	–	–	–	–	–
SQVSNSDSYK	≥ 10000 nM	≥ 10000 nM	1380 nM	1660 nM	83 nM	–	–	–	–	–	–
SISGKYDIK	≥ 10000 nM	≥ 10000 nM	1740 nM	2090 nM	50 nM	–	–	–	–	–	–
VSSIFISFY	–	–	–	–	–	55 nM	1800 nM	–	–	144 nM	1640 nM
EQRLPLLPK	987 nM	423 nM	1910 nM	1090 nM	765 nM	–	–	–	–	–	–
FSYDLRLNK	1260 nM	461 nM	15 nM	29 nM	4.9 nM	–	–	–	–	–	–
LEASISGKY	–	–	–	–	–	87 nM	≥ 10000 nM	–	–	≥ 10000 nM	3950 nM
SQDLACIFDA	≥ 10000 nM	≥ 10000 nM	≥ 10000 nM	≥ 10000 nM	≥ 10000 nM	–	–	–	–	–	–
VYRHCEYIL	–	–	–	–	–	3330 nM	≥ 10000 nM	64 nM	2200 nM	–	–
VYYNILIVL	–	–	–	–	–	1130 nM	≥ 10000 nM	52 nM	265 nM	–	–
ALERLLSLKK	≥ 10000 nM	≥ 10000 nM	≥ 10000 nM	147 nM	822 nM	–	–	–	–	–	–
RLPLLPKTWK	≥ 10000 nM	340 nM	2890 nM	11 nM	–	–	–	–	–	–	–
ALKISQLQK	≥ 10000 nM	3200 nM	≥ 10000 nM	15 nM	96 nM	–	–	–	–	–	–
LIENELMNY	–	–	–	–	–	161 nM	3940 nM	–	–	412 nM	228 nM
KILIKIPVTK	≥ 10000 nM	1660 nM	≥ 10000 nM	–	60 nM	–	–	–	–	–	–
FVSSIFISFY	–	–	–	–	–	84 nM	22 nM	–	–	118 nM	11 nM
ELFDKDTFFK	13 nM	3680 nM	3.6 nM	144 nM	–	–	–	–	–	–	–
KINSNFLLK	≥ 10000 nM	68 nM	2740 nM	17 nM	6.4 nM	–	–	–	–	–	–
LQMMNVNLQK	1110 nM	435 nM	320 nM	25 nM	7.2 nM	–	–	–	–	–	–
SSFDIKSEVK	≥ 10000 nM	≥ 10000 nM	31 nM	1900 nM	19 nM	–	–	–	–	–	–
